Assay results taken from article PMC12931240 (2025).

Biological target: NP‐WT S nanoparticles (nanoparticles coated with WT spike proteins) (SARS-CoV-2)
Experiment: SPR

B1: P5‐1C8 IgG (full‐length) (antibody, V domains shown)
VH: EVQLVESGGGLIQPGGSLRLSCAASEIIVSRNYMNWVRQAPGKGLEWVSVIYSGGSTFYADSVKGRFTISRDNSENTLYLQMNSLRAEDTAVYYCARGYGDYYFDYWGRGTLVTVSS
VL: not shown
koff: 2.19e-05 s⁻¹
